Data as given in US8513182B2, “Natural polypeptides for oral health care” (priority 2007, dated 2013).

System: Streptococcus mutans
Test: activity of full length lactoferrin variants expressed in insect cells against S. mutans
Format: cell-based
Settings: Lf variant expressed in an insect vector
Description: Caries is the single most common chronic childhood disease, five times more common than asthma. Over 70% of children […] have cavities. Over 108 million Americans lack dental health insurance so that treatment of this infection is lacking. S. mutans is considered one of the microbes most associated with dental decay.
Lactoferrin (Lf) is a multifunctional protein that is found in mammary secretion, tears and saliva and in the gastrointestinal tract. Its main function is to sequester iron from its surroundings to prevent oral microbes from attaining iron, a mineral necessary for survival. In addition, in its N-terminus, Lf has a region that has antimicrobial properties. This region is called the defensin region and it has been shown since 1980's that Lf can kill many types of bacteria including oral bacteria. It was also shown that within that N-terminus region, from amino acid position 11 to 31, at least two polymorphic forms exist. For the most part variation in this defensin region at amino acid position 29 can either contain arginine or lysine. […] Further we then determined that pure lactoferrin would have limited usefulness in the oral cavity unless it was linked to something that would allow it to bind to the tooth surface. […]

B1: arginine variant: more common Lf variant with arginine at position 29, expressed in an insect vector (protein, UniProt P02788 20-710, looked up)
Lactotransferrin: GRRRSVQWCAVSQPEATKCFQWQRNMRKVRGPPVSCIKRDSPIQCIQAIAENRADAVTLDGGFIYEAGLAPYKLRPVAAEVYGTERQPRTHYYAVAVVKKGGSFQLNELQGLKSCHTGLRRTAGWNVPIGTLRPFLNWTGPPEPIEAAVARFFSASCVPGADKGQFPNLCRLCAGTGENKCAFSSQEPYFSYSGAFKCLRDGAGDVAFIRESTVFEDLSDEAERDEYELLCPDNTRKPVDKFKDCHLARVPSHAVVARSVNGKEDAIWNLLRQAQEKFGKDKSPKFQLFGSPSGQKDLLFKDSAIGFSRVPPRIDSGLYLGSGYFTAIQNLRKSEEEVAARRARVVWCAVGEQELRKCNQWSGLSEGSVTCSSASTTEDCIALVLKGEADAMSLDGGYVYTAGKCGLVPVLAENYKSQQSSDPDPNCVDRPVEGYLAVAVVRRSDTSLTWNSVKGKKSCHTAVDRTAGWNIPMGLLFNQTGSCKFDEYFSQSCAPGSDPRSNLCALCIGDEQGENKCVPNSNERYYGYTGAFRCLAENAGDVAFVKDVTVLQNTDGNNNEAWAKDLKLADFALLCLDGKRKPVTEARSCHLAMAPNHAVVSRMDKVERLKQVLLHQQAKFGRNGSDCPDKFCLFQSETKNLLFNDNTECLARLHGKTTYEKYLGPQYVAGITNLKKCSTSPLLEACEFLRK
- killing / survival of S. mutans: little to no effect
